Laboratory results published in patent US20090317890.

Target: T1, human fibrin (clot formed from human fibrinogen, Sigma, with human thrombin), P02671
T1 chain 1: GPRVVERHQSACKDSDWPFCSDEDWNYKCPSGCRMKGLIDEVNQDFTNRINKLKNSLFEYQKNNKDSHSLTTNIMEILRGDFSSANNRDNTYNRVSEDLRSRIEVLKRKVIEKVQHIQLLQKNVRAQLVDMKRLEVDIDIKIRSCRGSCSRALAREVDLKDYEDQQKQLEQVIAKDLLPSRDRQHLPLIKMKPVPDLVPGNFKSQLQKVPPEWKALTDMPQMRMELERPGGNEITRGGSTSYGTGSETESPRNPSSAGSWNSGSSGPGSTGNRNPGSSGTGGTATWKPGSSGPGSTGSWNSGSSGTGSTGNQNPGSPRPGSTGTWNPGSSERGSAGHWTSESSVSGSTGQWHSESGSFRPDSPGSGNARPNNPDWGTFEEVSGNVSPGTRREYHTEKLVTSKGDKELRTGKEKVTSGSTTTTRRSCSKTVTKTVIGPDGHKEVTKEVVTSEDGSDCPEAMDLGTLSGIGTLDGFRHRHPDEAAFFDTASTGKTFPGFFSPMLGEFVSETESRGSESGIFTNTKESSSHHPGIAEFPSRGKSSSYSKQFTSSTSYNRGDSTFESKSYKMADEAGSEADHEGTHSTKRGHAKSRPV
T1 chain 2: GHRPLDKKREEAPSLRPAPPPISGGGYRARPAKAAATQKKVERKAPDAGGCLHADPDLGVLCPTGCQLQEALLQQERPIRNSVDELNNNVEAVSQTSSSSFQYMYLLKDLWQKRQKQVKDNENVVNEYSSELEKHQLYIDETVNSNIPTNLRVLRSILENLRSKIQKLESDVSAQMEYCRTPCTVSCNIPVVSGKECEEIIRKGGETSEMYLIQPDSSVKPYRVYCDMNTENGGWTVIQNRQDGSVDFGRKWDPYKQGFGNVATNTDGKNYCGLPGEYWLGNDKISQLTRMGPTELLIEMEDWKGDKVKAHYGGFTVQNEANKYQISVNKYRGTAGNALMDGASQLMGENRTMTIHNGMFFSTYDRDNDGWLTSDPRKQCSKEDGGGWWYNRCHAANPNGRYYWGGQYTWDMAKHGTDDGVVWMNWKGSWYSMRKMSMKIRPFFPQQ
T1 chain 3: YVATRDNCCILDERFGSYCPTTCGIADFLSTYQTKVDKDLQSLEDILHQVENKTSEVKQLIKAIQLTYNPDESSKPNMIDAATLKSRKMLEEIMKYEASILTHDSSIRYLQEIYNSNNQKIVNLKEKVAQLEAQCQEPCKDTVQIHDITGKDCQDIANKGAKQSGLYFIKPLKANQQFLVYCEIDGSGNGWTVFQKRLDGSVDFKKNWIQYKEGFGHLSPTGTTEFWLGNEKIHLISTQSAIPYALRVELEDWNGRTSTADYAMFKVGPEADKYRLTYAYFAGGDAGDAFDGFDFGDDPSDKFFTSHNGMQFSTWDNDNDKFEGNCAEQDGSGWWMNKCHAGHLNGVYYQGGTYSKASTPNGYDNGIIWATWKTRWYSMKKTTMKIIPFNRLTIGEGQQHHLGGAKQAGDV

B1: recombinant zinc-dependent metalloprotease (fibrinolytic protease from metagenomic clone pES63H9) (protein)
chain: MEPEPIKTCTVLENPGYQPIHAPTDVSPQPVLAAMEAVPVPTPPPTVDAVMLFRKKWRDGKILRVHFMDGDPDVHRKVEEVAHTWSRHANVRFKFVDDPAADIRISFTQPGSWSYLGTDALRIARSQSTMNFGWLTPRSPDSEYNRVVIHEFGHALGLVHEHQNPDNGIPWNKPAVYEYYSGPPNNWSKEQVDTNLFQQYSEDQVRFTGFDRESIMLYPIPNEFTVGDFEVGWNRDLSADDKEFIGRMYPKPANELIVDDPPRASEISRYGEIDTYTFLVTQKGSYRIETDGRTDLVMLLYGPEDDTKLIAADDDSGRRLNPRITEELDWGKYTVRLQHFSQRQTGKYAVGVYRDDAAE
With B1 the “hydrolysis of the fibrin α-chain, SDS-PAGE time course at 37° C.” value was “the purified enzyme completely hydrolyzed the α-chain and the γ-γ-chain at 37 °C after 1 h”, the “hydrolysis of the fibrin β-chain, SDS-PAGE time course at 37° C.” value was “The enzyme also partially hydrolyzed the β-chain after 30 min; however, it was not completely hydrolyzed after 2 h and even after 24 h (data not shown)” and the “hydrolysis of the fibrin γ-γ-chain, SDS-PAGE time course at 37° C.” value was “the purified enzyme completely hydrolyzed the α-chain and the γ-γ-chain at 37 °C after 1 h”.
